Here are results for one protein from PMC5026608.

Substrate in data set [1]: C[S+](CC[C@H](N)c1nn[nH]n1)C[C@H]1O[C@@H](n2cnc3c(N)ncnc32)[C@H](O)[C@@H]1O
Nature of the data set: methyltransferase assay, HPLC / A410. The note with it: saturating ClNP 1.5 mM, 100 mM Tris pH 8.0, 37 °C, methyl donor. The class given is biochemical, Streptomyces peucetius.

Substrate in the data set “purified protein”: C[S+](CC[C@H](N)C(=O)O)C[C@H]1O[C@@H](n2cnc3c(N)ncnc32)[C@H](O)[C@@H]1O
Briefly: purified protein. Conditions: saturating ClNP 1.5 mM, 100 mM Tris pH 8.0, 37 °C, methyl donor.

B1: DnrK (Streptomyces peucetius) (protein)
chain: MTAEPTVAARPQQIDALRTLIRLGSLHTPMVVRTAATLRLVDHILAGARTVKALAARTDTRPEALLRLIRHLVAIGLLEEDAPGEFVPTEVGELLADDHPAAQRAWHDLTQAVARADISFTRLPDAIRTGRPTYESIYGKPFYEDLAGRPDLRASFDSLLACDQDVAFDAPAAAYDWTNVRHVLDVGGGKGGFAAAIARRAPHVSATVLEMAGTVDTARSYLKDEGLSDRVDVVEGDFFEPLPRKADAIILSFVLLNWPDHDAVRILTRCAEALEPGGRILIHERDDLHENSFNEQFTELDLRMLVFLGGALRTREKWDGLAASAGLVVEEVRQLPSPTIPYDLSLLVLAPAATGA
A word on the Km: it is the concentration of substrate that gives half-maximal velocity. As usually defined, the kcat is the number of substrate molecules converted per active site and unit of time at saturation. For B1, the values for the Michaelis constant (Km) (in data set [1]; in the data set “purified protein”) were 335 ± 40 µM and 138 ± 7 µM, respectively. In addition, the results for the kcat (in data set [1]; in the data set “purified protein”) were 0.000517 ± 1.67e-05 s⁻¹ and 0.000283 s⁻¹, respectively.
